According to publication PMC10565809 (2022):
Blank lines part the entries; values can stand above or below the molecule they belong to.

Legend:
[1] = target: GFRα1 soluble form (Homo sapiens) (UniProt P56159); experiment: SPR; details: cited from earlier work
GFRα1 = target: T1, GFRα1 (Homo sapiens, UniProt P56159); experiment: MST
T1 chain: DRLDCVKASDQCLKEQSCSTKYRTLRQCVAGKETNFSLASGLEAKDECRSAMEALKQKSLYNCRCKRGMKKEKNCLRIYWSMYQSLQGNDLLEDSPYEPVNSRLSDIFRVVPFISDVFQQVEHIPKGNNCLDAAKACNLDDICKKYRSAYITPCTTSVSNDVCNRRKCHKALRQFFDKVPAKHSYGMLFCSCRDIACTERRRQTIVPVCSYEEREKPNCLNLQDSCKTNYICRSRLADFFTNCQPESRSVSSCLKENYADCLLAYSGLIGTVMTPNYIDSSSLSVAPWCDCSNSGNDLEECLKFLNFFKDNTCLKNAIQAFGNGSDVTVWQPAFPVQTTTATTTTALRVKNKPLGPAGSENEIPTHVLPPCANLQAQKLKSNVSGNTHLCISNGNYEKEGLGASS

Molecule: GDNF (from UniProt P39905)
- Kd [1]: 0.63 nM

- Kd (GFRα1): 260 nM
B1: GDNF (protein)
chain: KRSPDKQMAVLPRRERNRQAAAANPENSRGKGRRGQRGKNRGCVLTAIHLNVTDLGLGYETKEELIFRYCSGSCDAAETTYDKILKNLSRNRRLVSDKVGQACCRPIAFDDDLSFLDDNLVYHILRKHSAKRCGCI
